Measurements: patent US20080286284A1
Several values for one entry are separate records, joined by “and”; a condition that tells them apart may be missing. Identical values can stand only once.

What was measured:
[1] = biological target: recombinant soluble PSMA (rsPSMA) (human) (UniProt Q04609); test: Biacore, rsPSMA
[2] = biological target: prostate specific membrane antigen (PSMA), full-length human (human) (UniProt Q04609); test: fraction of radiolabeled mAb bound, PSMA-3T3 cells
[3] = biological target: prostate specific membrane antigen (PSMA), full-length human (human) (UniProt Q04609); test: average over PSMA-expressing cells
[4] = biological target: prostate specific membrane antigen (PSMA), full-length human (human) (UniProt Q04609); test: cell-based or functional assay

Chain of prostate specific membrane antigen (PSMA), full-length human (human) (Q04609 whole entry): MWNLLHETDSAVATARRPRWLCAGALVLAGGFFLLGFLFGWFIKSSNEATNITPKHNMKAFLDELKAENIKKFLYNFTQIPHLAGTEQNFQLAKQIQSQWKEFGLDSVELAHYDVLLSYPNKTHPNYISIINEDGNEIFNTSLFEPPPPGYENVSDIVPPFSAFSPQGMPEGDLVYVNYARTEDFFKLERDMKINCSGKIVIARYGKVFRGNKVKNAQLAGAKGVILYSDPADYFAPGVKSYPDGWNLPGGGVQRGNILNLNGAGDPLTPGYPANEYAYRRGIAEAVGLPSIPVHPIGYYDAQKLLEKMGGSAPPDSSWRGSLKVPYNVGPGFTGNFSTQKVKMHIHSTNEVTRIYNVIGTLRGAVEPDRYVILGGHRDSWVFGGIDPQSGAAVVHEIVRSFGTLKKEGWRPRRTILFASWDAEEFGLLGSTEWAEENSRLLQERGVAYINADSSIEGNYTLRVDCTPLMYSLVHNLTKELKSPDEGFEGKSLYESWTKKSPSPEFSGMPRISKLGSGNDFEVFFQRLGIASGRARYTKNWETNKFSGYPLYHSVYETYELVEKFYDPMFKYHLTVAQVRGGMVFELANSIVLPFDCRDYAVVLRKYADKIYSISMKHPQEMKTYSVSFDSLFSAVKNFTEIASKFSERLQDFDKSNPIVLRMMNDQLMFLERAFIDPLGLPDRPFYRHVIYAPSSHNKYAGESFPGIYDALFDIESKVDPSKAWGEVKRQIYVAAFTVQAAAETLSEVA
Chain of recombinant soluble PSMA (rsPSMA) (human) (Q04609 44-750): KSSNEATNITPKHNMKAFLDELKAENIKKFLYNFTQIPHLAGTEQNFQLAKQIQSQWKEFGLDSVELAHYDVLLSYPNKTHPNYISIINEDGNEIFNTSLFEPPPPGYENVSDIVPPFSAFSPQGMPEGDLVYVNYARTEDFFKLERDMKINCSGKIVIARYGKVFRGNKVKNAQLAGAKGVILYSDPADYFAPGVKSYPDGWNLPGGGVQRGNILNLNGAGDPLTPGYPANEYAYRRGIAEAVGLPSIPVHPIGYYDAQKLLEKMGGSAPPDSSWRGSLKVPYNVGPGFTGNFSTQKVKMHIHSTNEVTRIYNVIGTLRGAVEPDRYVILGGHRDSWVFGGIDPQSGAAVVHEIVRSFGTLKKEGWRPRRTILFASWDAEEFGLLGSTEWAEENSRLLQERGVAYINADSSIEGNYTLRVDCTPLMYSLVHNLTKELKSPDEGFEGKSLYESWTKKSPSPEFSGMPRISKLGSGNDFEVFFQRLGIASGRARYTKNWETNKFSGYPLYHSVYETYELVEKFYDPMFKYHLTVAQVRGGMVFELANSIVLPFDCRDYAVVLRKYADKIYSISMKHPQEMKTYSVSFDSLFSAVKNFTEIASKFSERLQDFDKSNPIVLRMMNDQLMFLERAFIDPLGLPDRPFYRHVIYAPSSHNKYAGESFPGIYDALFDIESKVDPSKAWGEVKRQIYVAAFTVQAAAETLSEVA

## Control (Table 6, Biacore) (antibody)
[1]
  Kd: 0.634 nM

## ^111In radiolabeled CHX-A″-DTPA mJ591 (antibody)
[2]
  Immunoreactivity (%): 58.5% and 54.9%
[3]
  Immunoreactivity (%): 56.7%

## mAb J591 (murine) (antibody)
[4]
  LD50, immunotoxin cytotoxicity (Mab-Zap saporin secondary) on C4-2 cells: 88.2 pM
  LD50, immunotoxin cytotoxicity (Mab-Zap saporin secondary) on PSMA-3T3 cells: 89 pM
